In US7626003B2, “Genetically engineered cDNA of rat bcl-x gene and an improved protein” (priority 1999, dated 2009):
Where a chain is given by its changes, count along the chain named.

B1: Bcl-xFNK: improved protein of rat Bcl-xL, SEQ ID NO: 3, with substitutions Tyr22Phe; Gln26Asn; Arg165Lys (protein)
chain: MSQSNRELVVDFLSYKLSQKGFSWSNFSDVEENRTEAPEETEPERETPSAINGNPSWHLADSPAVNGATGHSSSLDAREVIPMAAVKQALREAGDEFELRYRRAFSDLTSQLHITPGTAYQSFEQVVNELFRDGVNWGRIVAFFSFGGALCVESVDKEMQVLVSKIASWMATYLNDHLEPWIQENGGWDTFVDLYGNNAAAESRKGQERFNRWFLTGMTVAGVVLLGSLFSRK
modifications: Artificial Sequence Modified Protein of SEQ ID NO 2
notes: Gln26Asn; Arg165Lys
B2: Bcl-xL: wild-type protein expressed from the rat bcl-x gene, SEQ ID NO: 2 (protein, listed as Rattus norvegicus)
chain: B1 chain with F22Y, N26Q, K165R
B3: TAT-Bcl-xFNK: Bcl-xFNK in which a protein-transduction-domain peptide of HIV TAT protein is fused at the N-terminal (protein)
chain: YGRKKRRQRRRMSQSNRELVVDFLSYKLSQKGFSWSNFSDVEENRTEAPEETEPERETPSAINGNPSWHLADSPAVNGATGHSSSLDAREVIPMAAVKQALREAGDEFELRYRRAFSDLTSQLHITPGTAYQSFEQVVNELFRDGVNWGRIVAFFSFGGALCVESVDKEMQVLVSKIASWMATYLNDHLEPWIQENGGWDTFVDLYGNNAAAESRKGQERFNRWFLTGMTVAGVVLLGSLFSRK

What was measured:
[1] = test system: Chinese hamster ovary cell CHO; test: Incubation of CHO transfectants in serum-free medium; type: cell-based
Experimental: The CHO cells (1×10^5 cells) were suspended in culture medium DMEM/F-12 (GIBCO BRL) containing 10% fetal bovine serum, and incubated in a 60-mm dish overnight. The linearized pEF1-BOSbcl-xY22F/Q26N/R165K (10 μg) and the linearized pST-neoB (0.5 μg) having a drug Geneticin-resistant gene were introduced into the CHO cells using a SuperFect Transfection Reagent kit (Qiagen). As a control, the linearized empty vector pEF1-BOS or the linearized pEF1-BOSbcl-x were introduced together with the linearized pST-neoB into the CHO cells. After the transfection treatment, the cells were incubated in culture medium DMEM/F-12 containing 10% fetal bovine serum overnight. Geneticin (700 μg/ml) was added, and the incubation was continued to yield the transfected cells. In the same manner as in Example 3, the transfectants expressing the improved protein Bcl-xFNK or the wild-type Bcl-xL abundantly and to the same level were selected. Thus, CHObcl-x, CHObcl-xFNK, and CHOvec (transfected with the empty vector) were obtained.
Three transfectants, CHObcl-x, CHObcl-xFNK, and CHOvec, prepared in Example 6 were incubated in culture medium DMEM/F-12 containing 10% fetal bovine serum. The cells (1×10^3 cells) were plated in a 100-mm dish containing the medium DMEM/F-12 containing 3% fetal bovine serum. […]

[2] = test system: human leukemia cell line Jurkat; test: Resistance of Jurkat transfectants to apoptosis induced by serum withdrawal (trypan blue exclusion); type: cell-based; details: serum-free RPMI1640, surviving cells counted daily (FIG. 3)
Experimental: The cells were washed 3 times with PBS and suspended in RPMI1640 medium containing no serum at 1×10^5 cells/ml. […] The number of the cells was carefully controlled to be less than 5×10^5 cells/ml. When the cell number was expected to exceed the limitation, the culture medium was diluted 2 fold. Every 3 days, the half of the serum-free medium was replaced with the fresh medium.

[3] = test system: murine premyeloid cell line FDC-P1; test: Resistance of FDC-P1 transfectants to apoptosis induced by depletion of the cytokine IL-3; type: cell-based
Description: (§1) For the transfectant FDC-P1bcl-xFNK cells prepared in Example 2, the resistance was examined to a variety of apoptosis-inducing stimuli. In these figures, the empty marks, ⋄, □, Δ, ∇, and ◯ represent 5 independent transfectants, FDC-P1bcl-xFNK-1, -2, -3, -4, and -5, respectively. […] The mark ▪ represents FDC-P1vec in which the empty vector plasmid DNA has been introduced.
The result are shown in FIG. 16, in which the number of the surviving cells immediately after depletion of IL-3 was taken as 100%. In this experiment, the cells other than FDC-P1vec were diluted 5 times with the fresh medium containing no IL-3 every 3rd day.

[4] = test system: human leukemia cell line Jurkat; test: Resistance of Jurkat transfectants to heat treatment (trypan blue exclusion); type: cell-based; details: 45° C. for 10 minutes (FIG. 12)
[5] = test system: human leukemia cell line Jurkat
Experimental: For the transfected Jurkatbcl-xFNK cells prepared in Example 2, the resistance (non-sensitivity) to a variety of apoptosis-inducing stimuli was examined.
The cells were suspended in RPMI1640 medium at 1×10^5 cells/ml, to which staurosporine (20 nM), TN-16 (10 μM), camptothecin (10 μM), hydroxyurea (1 mM), trichostatin A (0.25 μg/ml), hydrogen peroxide (0.05 mM), or paraquat (1 mM) was then added. And the cells were incubated. The surviving cells were counted by the trypan blue exclusion everyday.

[6] = test system: human leukemia cell line Jurkat; test: Dehydrogenase activity of Jurkat transfectants after heat treatment (WST-1 assay); type: cell-based; details: 45° C. for 10 minutes, 1st day (FIG. 13)
Experimental: The cells were harvest by centrifugation, then suspended in an equal amount of the fresh culture medium, and incubated at 37° C. In addition, dehydrogenase activities of the cells (100 μl of the culture broth) were determined at 1st day using the Cell Counting Kit (Dojin Chemical) and WST-1 as a substrate (WST-1 Assay). The results are shown in FIG. 13, wherein the enzyme activity of the cells without heat treatment was taken as 100%.

[7] = test system: human leukemia cell line Jurkat; test: Resistance of Jurkat transfectants to anti-Fas antibody (trypan blue exclusion); type: cell-based; details: anti-Fas antibody CH-11 1-1000 ng/ml, 1 day (FIG. 4)
Experimental: The results are shown in FIG. 4, wherein the number of the cells incubated without the antibody was taken as 100%.

[8] = test system: murine premyeloid cell line FDC-P1; test: Resistance of FDC-P1 transfectants to TN-16 and staurosporine (WST-1 assay); type: cell-based; details: TN-16 50 μM
Experimental: as §1
The cells were suspended in culture medium at 2×10^5 cells/ml, to which TN-16 (50 μM) and staurosporine (10 nM) was then added. The dehydrogenase activity of the cells (100 μl of the culture broth) was determined daily using the Cell Counting Kit (Dojin Chemical) and WST-1 as a substrate (WST-1 Assay). The enzyme activity was taken as 100% immediately before addition of the agents.

hepatocytes = test: Inhibition of the death of hepatocytes caused by steroid hormone (dexamethasone) in mice; type: in vivo; details: mouse, 100 μg intraperitoneal 3 hours before 0.5 mg dexamethasone i.p., liver sections 3 hours later (FIGS. 25-27)
Experimental: Three 8-week old mice ([…], 20 g body weight, female) were divided into 3 groups (A, B and C). To the mouse of Group A was intraperitonealy administered PBS solution (0.8 ml) containing 100 μg of TAT-Bcl-xFNK protein (prepared from the soluble fraction). To the mice of Group B and Group C (control) was intraperitonealy administered PBS (0.8 ml) in the same manner. The mice were put back into cages, and after a lapse of 3 hours 0.5 ml of 25% ethanol/PBS solution containing 0.5 mg of a steroid hormone (dexamethasone) was intraperitonealy administered to the mice of Group A and Group B. To the mouse of Group C was intraperitonealy administered 0.5 ml of 25% ethanol/PBS solution. They were put back into cages, and after a lapse of 3 hours killed. Their livers were taken out, and frozen to prepare frozen sections with a cryostat. The sections were stained with hematoxylin-eosin to evaluate the death of hepatocyte.

HeLa cells = test: Incorporation of TAT-Bcl-xFNK protein in cells (immunofluorescence); type: cell-based; details: 1 μM in medium, 24 hours, FITC immunofluorescence (FIG. 18)
Experimental: TAT-Bcl-xFNK protein (1 μM) was added to DMEM/F-12 (Life Technologies) containing 10% FBS (fetal bovine serum), a medium for HeLa cells cultured in a Slide Chamber (Lab-Tek), and the cells were incubated in a CO2 incubator for 24 hours. The cells were then washed twice with PBS. The cells were fixed with paraformaldehyde (4%) dissolved in PBS at room temperature for 45 min. The cells were washed 3 times with PBS (5 minutes/round), and incubated in PBS containing 10% FBS for 20 min. The cells were washed 3 times with PBS (5 minutes/round), and treated with 1.5% FBS-PBS solution containing an anti-rat Bcl-xL monoclonal antibody 35-32 (murine origin) for 30 min. The cells were washed 3 times with PBS (5 minutes/round), and treated with 1.5% FBS-PBS solution containing an anti-mouse IgG antibody conjugated with FITC, for 30 minutes. The cells were washed 3 times with PBS (5 minutes/round), mounted in PBS, and sealed to observe under a fluorescence microscope.

[9] = test system: chondrocyte of cartilage slice from Osteoarthritis patients; test: Cell death-inhibiting activity in chondrocytes of cartilage slice culture; type: cell-based, human; details: 0.2 μM in culture medium, up to day 9, hematoxylin-eosin (FIGS. 19-24)
Experimental: Cartilage was obtained from the femoral bone head of Osteoarthritis patients undergoing total hip arthroplasty. The cartilage tissue above the subchondral bone (10×10 mm; 1.2 mm in thickness) was aseptically sliced using a single-edged razor. The cartilage slice was placed in a 24-well plate and incubated with a DMEM/Ham F-12 mixed medium (Life Technologies) containing 20% FBS (fetal bovine serum) at 37° C. in a CO2 incubator. For a comparative experiment, the expression vector of TAT-Bcl-xL was constructed in the same manner as TAT-Bcl-xFNK, and TAT-Bcl-xL protein was partially purified from Escherichia coli (TAT-Bcl-xL preparation has the same purity). TAT-Bcl-xFNK (prepared from the inclusion body) or TAT-Bcl-xL (prepared from the inclusion body) were added to the culture medium at a concentration of 0.2 μM. As a control, an equal amount of PBS (a solvent used to solubilize the proteins) containing 7M urea and 1 mM DTT was added. The culture medium containing the protein was changed on day 4 and day 7. After incubation for 4 days and 9 days, the cartilage slice was frozen to prepare frozen sections using a cryostat. The sections were stained with hematoxylin-eosin to evaluate the death of chondrocyte.

Row | Molecule | growth of transfected CHO cells in serum-free medium ([1]; DMEM/F-12 lacking serum from day 6, another 6 days (FIG. 17)) | dying or dead cells in colonies in serum-free medium ([1]; compared with CHObcl-x expressing Bcl-xL (FIG. 17)) | survival of transfected cells after serum withdrawal [2] | growth in the absence of IL-3 ([3]; medium without IL-3) | resistance to apoptosis induced by depletion of IL-3 ([3]; medium without IL-3 but with serum (FIG. 16)) | resistance of transfected cells to heat treatment [4] | resistance of transfected cells to cytotoxic drugs [5] | dehydrogenase activity after heat treatment (WST-1) [6] | resistance of transfected cells to anti-Fas antibody [7] | resistance of transfected cells to TN-16 and staurosporine ([8]; FDC-P1 transfectants (5 independent), staurosporine 10 nM (FIGS. 14, 15)) | dehydrogenase activity under TN-16 and staurosporine (WST-1) ([8]; FDC-P1 transfectants, staurosporine 10 nM, daily) | inhibition of degeneration of hepatic tissue and cell death caused by dexamethasone (hepatocytes) | incorporation of the protein into cells (HeLa cells) | inhibition of the death of chondrocyte [9]
1 | B1 | grew far better than CHOvec | fewer cells were dying or dead | survived for a longer period than the wild-type Bcl-xL-expressing cells | could grow even in the absence of IL-3 | higher resistance than the transfectant expressing the wild-type Bcl-xL | high resistance to heat treatment | high resistance to all of the cytotoxic drugs tested | maintained at high level even after heat treatment | high resistance to the highly concentrated anti-Fas antibody | high resistance to treatment with TN-16 and staurosporine | maintained at high level | – | – | –
2 | B2 | – | – | survived longer than the control parent cells and the vector-transfected cells | – | – | – | – | – | – | – | – | – | – | –
3 | B3 | – | – | – | – | – | – | – | – | – | – | – | markedly inhibited | has passed through the cellular membrane and has been incorporated in the cells | inhibits the death of chondrocyte more strongly than TAT-Bcl-xL
